How the values were obtained:
Details in all cases: both partners purified
[1] = target: T1, c-di-GMP phosphodiesterase ProE (Pseudomonas aeruginosa, UniProt Q9HTQ9 1-558); assay: ITC; MicroCal VP-ITC, 25°C; ProE (printed 'Thirty micrometers') in the cell titrated with 300 µM PqsE; PBS with 5 mM β-mercaptoethanol; single set of identical sites model
T1 construct: ProE, c-di-GMP phosphodiesterase of Pseudomonas aeruginosa PAO1; also called PDE ProE
T1 sequence: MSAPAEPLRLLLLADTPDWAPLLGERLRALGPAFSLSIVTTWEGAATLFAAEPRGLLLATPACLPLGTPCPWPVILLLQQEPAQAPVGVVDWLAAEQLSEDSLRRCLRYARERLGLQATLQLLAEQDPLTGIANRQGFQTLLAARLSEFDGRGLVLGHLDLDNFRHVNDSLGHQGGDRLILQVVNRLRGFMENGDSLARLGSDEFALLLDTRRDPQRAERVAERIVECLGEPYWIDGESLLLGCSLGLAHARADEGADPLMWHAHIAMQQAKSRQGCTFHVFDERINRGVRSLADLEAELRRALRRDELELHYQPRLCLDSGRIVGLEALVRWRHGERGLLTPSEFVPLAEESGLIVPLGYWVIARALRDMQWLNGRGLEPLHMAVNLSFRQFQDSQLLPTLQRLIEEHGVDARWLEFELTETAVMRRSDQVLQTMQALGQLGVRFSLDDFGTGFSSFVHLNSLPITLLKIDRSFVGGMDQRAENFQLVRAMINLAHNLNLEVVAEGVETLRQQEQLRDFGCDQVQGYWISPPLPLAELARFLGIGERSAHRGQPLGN

[2] = target: T1, c-di-GMP phosphodiesterase ProE; assay: SPR; Biacore T200, 25°C, PBST pH 7.4; PqsE amine-coupled on CM5 chip, ProE injected with 100 µM c-di-GMP
[3] = target: T1, c-di-GMP phosphodiesterase ProE; assay: SPR; Biacore T200, 25°C, PBST pH 7.4; PqsE amine-coupled on CM5 chip (8,000 RU), ProE injected; 1:1 Langmuir or steady-state affinity model
[4] = target: T1, c-di-GMP phosphodiesterase ProE; assay: SPR; Biacore T200, 25°C, PBST pH 7.4; PqsE amine-coupled on CM5 chip, ProE injected with 10 mM Mg2+

B1: PQS quorum sensing protein PqsE (natural protein)
chain: MLRLSAPGQLDDDLCLLGDVQVPVFLLRLGEASWALVEGGISRDAELVWADLCRWVADPSQVHYWLITHKHYDHCGLLPYLCPRLPNVQVLASERTCQAWKSESAVRVVERLNRQLLRAEQRLPEACAWDALPVRAVADGEWLELGPRHRLQVIEAHGHSDDHVVFYDVRRRRLFCGDALGEFDEAEGVWRPLVFDDMEAYLESLERLQRLPTLLQLIPGHGGLLRGRLAADGAESAYTECLRLCRRLLWRQSMGESLDELSEELHRAWGGQSVDFLPGELHLGSMRRMLEILSRQALPLD
notes: PqsE of the PQS quorum sensing system, Pseudomonas aeruginosa PAO1; DNA fragment encoding pqsE cloned into pET28b(+); source: E. coli BL21(DE3), pET28b(+), purified (Ni-NTA)
With B1 the Kd [1] was 5.46 µM, the Kd [2] was 2210 nM and the Kd [3] was 3.21 µM. For the same binder, the Kd [4] was 2270 nM.

Reference: article PMC11852716, “c-di-GMP phosphodiesterase ProE interacts with quorum sensing protein PqsE to promote pyocyanin production in Pseudomonas aeruginosa” (mSphere, 2025)
